Test [1] has as its system antigen present in Proteus mirabilis. Nature of the test: Western blot assay on pathogen lysates. The test is classed as binding. The conditions noted are these: Fab 10 μg/ml; 8 μg total protein lysate per well. The procedure: (§1) Bacterial cell lysates were carried out inoculating a colony or a scratch in 10 ml of SB and growing bacteria at 37° C. overnight. Cultures of Staphylococcus aureus, Proteus mirabilis, Klebsiella pneumoniae, Enterococcus cloacae, Streptococcus pyogenes, Neisseriae gonhorreae, Listeria monocytogenes were grown. Overnight cultures were harvested by centrifugation (4500 RPM for 10 min.) and then resuspended in 1 ml of RIPA buffer and protease inhibitor PMSF (1 mM final). After three cycles of freeze-and-thawing (37° C. and −80° C.) and one cycle of sonication (90 sec at max power) the lysate was cleared by centrifugation (15000 RPM at 4° C. for 20 min) Moreover one colony of Haemophilus influenzae was seeded on blood agar plates and then grown at 37° C. overnight. Haemophilus inluenzae colonies were collected and resuspended in 500 μl of RIPA/PMSF. All lysates were stored at −20° C. until usage.
(§2) Lysates from Listeria monocitogenes, Streptococcus pyogenes, Staphylococcus aureus, Enterococcus cloacae, Haemophilus influenzae, Proteus mirabilis, Escherichia coli, Klebsiella pneumoniae, were prepared as described in Example II. SDS-PAGE was performed according to standard techniques. Briefly, protein concentration of all lysates was determined by BCA kit (Pierce) according to manufacturer instruction. SDS-PAGE loading buffer was added to protein lysates before heating at 90° C. for 5 min. […]
A general note: In western blotting, separated proteins are transferred to a membrane and probed.

The test system of test [2] is antigen present in Klebsiella pneumoniae. Nature of the test: Western blot assay on pathogen lysates. The class given is binding. The conditions noted are these: Fab 10 μg/ml; 8 μg total protein lysate per well. The procedure:
as §1, §2

The target of a further test is T1, transgelin 1 (SM22) (Homo sapiens, UniProt Q01995).
T1 construct: A piece of the coronary plaque was weighted (65 mg), cut in small fragments and directly smashed with a Dounce; from tissue; host or cells: human coronary atherosclerotic plaque
Nature of the test: 2D electrophoresis Western blotting on plaque lysate and MALDI-ToF identification of the recognized antigen. The class given is binding. The conditions noted are these: two distinct spots of the 2D gel; confirmed by protein sequencing. The procedure:
A piece of the coronary plaque was weighted (65 mg), cut in small fragments and directly smashed with a Dounce in 500 μl of the R5 buffer, containing: urea 8M, thiourea 2M, CHAPS 4%, Zwittergent 0.05%, 40 mM trizma base and a cocktail of protease inhibitors. The lysate was then sonicated for 5 minutes and centrifuged at 13,000 rpm for 30 minutes at 15° C. Supernatant protein content was evaluated by Bradford assay, using BSA dissolved in the same buffer, as standard. The proteins (200 μg), dissolved in R5 buffer (final volume 130 μl), were added to DeStreak (100 mM) and 2% IPG buffer pH 3-10NL, prior to loading the sample on strip pH 3-10NL, 7 cm. Total focusing run for the 1st dimension was 50,000 Vh. The 2nd dimension was carried out using 12.5% acrylamide SDS-PAGE. MW Standard proteins were run on the same gel. The gel was stained with colloidal Coomassie Brilliant Blue (cCBB). […]
Protein corresponding to positive spots in WB were excised from the gel, destained, reduced with DTE (10 mM in ammonium bicarbonate 25 mM) at 56° C. for 30 minutes, alkylated with IAA (55 mM in ammonium bicarbonate 25 mM) in the dark at room temperature for 20 minutes. They were digested with trypsin and directly analysed by MALDI-ToF mass spectrometry, using alpha-cyano-4-hydroxycinnamic acid as matrix. […]

For test [3], the system named is antigen in the carotid lysate. Description: Western blotting on carotid lysates. The class given is binding, human. To be noted: Fab 10 μg/ml; protein extracts 20 μg/lane. The procedure: Carotid plaques were macrodissected in 2 mm-thick rings and frozen in isopentane/liquid nitrogen. Every ring was considered as a single specimen. For each patient proteins were extracted from a stenotic and a non-stenotic ring by tissue homogenization in RIPA lysis buffer. The protein content of carotid plaque homogenates was quantified by Bradford assay. Western blot was performed on protein extracts (20 μg/lane) by using 10% Sodium Dodecyl Sulphate-PolyAcrylamide Gel Electrophoresis (SDS-PAGE). SDS-PAGE loading buffer was added to protein lysates before heating at 90° C. for 5 min. Gel was run for about 2 hours at 120V. […] Target (7816-FLAG) and reference proteins (bActin) were detected with specific antibodies (anti-FLAG clone M2 followed by Rabbit-anti Mouse IgG-HRP, and Rabbit-anti Mouse IgG-HRP, respectively—all from Sigma (cod: A9917, St. Louis, Mo.). The membrane was developed by SuperSignal West Pico Chemiluminescent Substrate (Pierce) according to the manufacture instructions. The mean pixel optical density (OD) for each band of the target protein, determined by densitometry, was normalized vs. β-Actin, to evaluate its quantity with respect to carotid plaque total cells. Stenotic and non stenotic rings from stable and unstable (determined by US) carotid plaque specimens were compared.

Entries after “also recorded” stand apart in the source; their conditions may differ.

T1 sequence (Q01995 whole entry, the tested form may be a part): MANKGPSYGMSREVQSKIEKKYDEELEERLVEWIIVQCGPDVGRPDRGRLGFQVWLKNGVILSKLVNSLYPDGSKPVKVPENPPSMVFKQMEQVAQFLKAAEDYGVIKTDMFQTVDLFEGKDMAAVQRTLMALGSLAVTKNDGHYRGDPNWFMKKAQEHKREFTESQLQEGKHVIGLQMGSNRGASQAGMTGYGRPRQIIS

B1: Fab7816: human recombinant Fab from coronary plaque library ID11LIB; heavy chain SEQ ID NO:2, light chain SEQ ID NO:4 (antibody, listed as Homo sapiens, V domains shown)
VH: LESGPGQVKPSQTLSLTCTVSGGSIGSGSYSWNWIRQPAGRGLEWIGRISDSGNTNFNPSLKSRVTMSVDTSKNQFALKLTSVTAADTATYFCARGRGILTGLFDYWGQGSLVSVSSASTKGPSVFPLAPSSKSTSGGTAALGCLVKD
VL: SPDSLAVSPGGRATIKCASSQSVLDNSNHKNSLAWYQQKPGLPPKLLIYWASTRYSGVPDRFSGSGSGTDFTLTINNLQAADVAVYFCQQYYSTPWTFGQGTKVE
As to B1, the “binding in Western blot on Proteus mirabilis lysate” value in test [1] was “binds specifically; also recorded: recognizes with high specificity and affinity”. Further, in test [2], the “binding in Western blot on Klebsiella pneumoniae lysate” value was “binds specifically; also recorded: recognizes with high specificity and affinity”. Further, the “self antigen recognized in plaque lysate (2DE-WB spots, mass spectrometry)” value with transgelin 1 (SM22) was “transgelin 1 (SM22) was unequivocally identified as the putative natural (self) antigen”. For the same molecule, in test [3], the “binding in Western blot on carotid lysate” value is “binding with an antigen in the carotid lysate”.

The record behind these values is US20120165211A1, “Human Antibodies Cross-Reacting With A Bacterial And A Self Antigen From Atherosclerotic Plaques” (priority 2007, published 2012).
